# Patent US12312397B2, “Anti-O2 antibodies and uses thereof” (priority 2016, dated 2025)
# B1: KPD1: Class I anti-O2 antigen human mAb; VH SEQ ID NO: 134, VL SEQ ID NO: 135 (antibody, V domains shown)
# VH: QVQLQESDPRLVKPSETLSLTCSVSGVSITSNTYWWAWIRQPPGKKLEWIGSLSYSGDTYYNPSLTSRVTISRDIHQNQFFLELNSVTAADTAMYYCARDPDIIRNFQFDYWGRGTLVTVSS
# VL: EIVLTQSPGILSLSPGERATLSCRVSQILYMSHLAWYQHKPGQAPRLLIYGASIRATGVPDRFSGSGSGTDFTLTISRLEPEDFAVYYCQQYGASPTFGQGTMVEIK
# modifications: Description of Artificial Sequence: SyntheticKPD1 VH polypeptide; Description of Artificial Sequence: SyntheticKPD1 VL polypeptide
# B2: KPN70: Class I anti-O2 antigen human mAb; VH SEQ ID NO: 44, VL SEQ ID NO: 45 (antibody, V domains shown)
# VH: QVQLQESGPGLVKPSETLSLTCTVSGGSISTYYWNWIRQSPGKELEWIANIHQSGTTYYNPSLKSRVTMSVDTSKNQFSLKVISVTAADTAVYYCARESDDGYKWNYFDYWGQGTLVTVSS
# VL: EIVLTQSPASLSLSPGERATLSCRASQIVTNYLAWYQHKPGQAPRLLIFDMSIRAAGIPARFSGSGSGTDFTLTISSLEPEDFAVYYCQHRSNWPLFTFGPGTKVDIK
# modifications: Description of Artificial Sequence: SyntheticKPN70 VH polypeptide; Description of Artificial Sequence: SyntheticKPN70 VL polypeptide
# What was measured:
# [1] = test system: O1 LPS; assay: ELISA binding to O1 LPS; design: species or system Klebsiella pneumoniae; conditions: secondary screening
# Method in brief: (§1)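 Serial dilutions of monoclonal antibodies bound to LPS-coated plates for 1 h at room temperature, detected with alkaline phosphatase-conjugated anti-human IgG (1 h) and pNPP substrate (30 min). Absorbance read at 405 nm; EC50 values derived from binding curves.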
# [2] = test system: O2 LPS; assay: ELISA binding to O2 LPS; design: species or system Klebsiella pneumoniae; conditions: secondary screening, ELISA
# Method in brief: as §1
# [3] = test system: O1 LPS activation of NF-κB in RAW264.7-lux cells; assay: LPS neutralization assay (NF-κB luciferase, RAW264.7-lux), O1 LPS; assay type: cell-based, murine; conditions: for neutralizing activity against O1 LPS (NF-κB activation): human IgG1 format; for neutralization of LPS-O1: secondary screening
# Method in brief: (§2)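 Serially diluted mAbs (human IgG1) pre-mixed 1:1 with LPS at 4 °C for 1 hr, then diluted 1:10 onto RAW264.7-lux cells carrying an NF-κB-driven firefly luciferase; 2.5 h at 37 °C. Luminescence read; % inhibition relative to no-antibody and negative-control mAb wells.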
# [4] = test system: O2 LPS activation of NF-κB in RAW264.7-lux cells; assay: LPS neutralization assay (NF-κB luciferase, RAW264.7-lux), O2 LPS; assay type: cell-based, murine; conditions: for neutralizing activity against O2 LPS (NF-κB activation): human IgG1 format; for neutralization of LPS-O2: secondary screening
# Method in brief: as §2
# [5] = test system: K. pneumoniae 8570ΔcpsBLux (O2); assay: Opsonophagocytic killing (OPK) assay, O2 capsule mutant; assay type: cell-based, Klebsiella pneumoniae; design: key to D Capsule OPK O2: +++: Strongly positive activity; +: Positive activity; +/−: Somewhat positive depending upon the test conditions
# Method in brief: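 Luminescent capsule-deficient K. pneumoniae strains were mixed with DMF-differentiated HL-60 cells, 1:10 baby rabbit serum and anti-O2 LPS mAbs (2 ng–2.5 μg/mL), then shaken for 2 h at 37 °C. Killing % came from luminescence (RLU) against no-antibody and negative-control mAb wells, with >40% scored as positive.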
# [6] = test system: KPC strain Kp961842_O2; assay: Lethal pneumonia model, KPC strain Kp961842_O2; assay type: in vivo, Klebsiella pneumoniae; conditions: C57/BL6 mice, 2e8 CFU; mAb 2 mg/kg 1 hour post infection; survival
# Protocol: (§3) C57/BL6 mice were obtained from Jackson Laboratories and maintained in a special pathogen-free facility. All animal experiments were conducted in accordance with Institutional Animal Care and Use Committee (IACUC) protocol and guidance. K. pneumoniae strains were grown on agar plates overnight and diluted in saline at proper concentration. The inoculum titer was determined by plating a serial dilution of bacteria onto agar plates prior to and post challenge. In acute pneumonia models, C57/BL6 mice were inoculated with 1e4 to 2e8 colony-forming units (CFU) of K. pneumoniae clinical isolates in 50 μl saline intranasally. Anti-K pneumoniae monoclonal antibodies (mAbs) and human IgG1 control antibodies were given 1-24 hour post bacterial challenge (therapeutic dosing). Mouse survival was monitored daily until up to day 8. Survival data of representative experiments were plotted in Graphpad Prism software.
# (§4) Mice were challenged with 2e8 CFU of Klebsiella pneumoniae Carbanpenemase (KPC) strain Kp961842_O2 or with 3e8 CFU of KPC strain Kp977778_O2, followed by the administration of anti-O2 mAbs. When administered at a concentration of 2 mg/kg 1 hour post bacterial infection, Class III anti-O2 LPS mAbs KPN42, KPN179-IgG1, and KPS44v2017 protected mice from lethal bacterial challenge with the multi-drug resistant KPC strains Kp961842_O2 (FIG. 6, left panel, and FIG. 10) and Kp977778_O2 (FIG. 6B, right panel).
# [7] = test system: KPC strain Kp977778_O2; assay: Lethal pneumonia model, KPC strain Kp977778_O2; assay type: in vivo, Klebsiella pneumoniae; conditions: C57/BL6 mice, 3e8 CFU; mAb 2 mg/kg 1 hour post infection; survival
# Protocol: as §3, §4
# [8] = test system: O1 LPS; assay: Western blot of purified Klebsiella LPS serotypes, O1 LPS; assay type: binding, Klebsiella pneumoniae; conditions: FIG. 1A
# Source text: FIGS. 1A-B show the expansion of the O2 LPS serotype in multi-drug resistant (MDR) strains of Klebsiella pneumoniae.
# SDS-PAGE analysis followed by Silver Stain confirmed the purity of LPS. Human antibodies against O2 serotypes were then identified based on the reactivity of human B cells against the respective purified LPS. […] (FIG. 1A).
# [9] = test system: K. pneumoniae O1/O2; assay: Mouse protection models (O1/O2), Table 7 summary; assay type: in vivo, Klebsiella pneumoniae; design: key: +++: Strongly positive activity; +: Positive activity; +/−: Somewhat positive depending upon the test conditions; conditions: mouse pneumonia models
# Protocol: As described in more detail in below, anti-O2 LPS mAbs were tested for: 1) binding to O1 and O2 LPS (see Example 5); 2) LPS neutralization (LPS-Neut) against O1 and O2 LPS (see Example 7); 3) OPK against capsule mutant strain 43816ΔcpsB lux (O1) and 8570ΔcpsB lux (O2) (see Example 8); and 4) protective activity in pneumonia models (see Example 9). O2 LPS mAbs were subsequently divided into three classes based on their in vitro activities. Class I mAbs were characterized as Binding (O1+O2+)/OPK (O1−O2+); Class 2 mAbs were characterized as Binding (O1+O2+)/OPK (O1+O2+); and Class III mAbs were characterized as Binding (O1±O2+)/OPK (O1−O2+).
# as §3, with “Anti-K pneumoniae monoclonal antibodies (mAbs) and human IgG1 control antibodies were given 1-24 hour post bacterial challenge (therapeutic dosing).” left out, “Survival data of representative experiments were plotted in Graphpad Prism software.” left out
Molecule,binding to LPS-O1 [1],binding to LPS-O2 [2],neutralizing activity against O1 LPS (NF-κB activation) [3],neutralization of LPS-O1 [3],neutralizing activity against O2 LPS (NF-κB activation) [4],neutralization of LPS-O2 [4],OPK activity against O2 capsule mutant ([5]; secondary screening),"protection from lethal bacterial challenge, Kp961842_O2 [6]","protection from lethal bacterial challenge, Kp977778_O2 [7]",cross-reactivity with O1 LPS [8],D Capsule OPK O2 ([5]; capsule mutant strain 8570ΔcpsB lux (O2)),Mouse protection models (O1/O2) [9]
B1,showed binding,showed binding,blocked,neutralized,blocked,neutralized,showed OPK activity,did not protect,did not protect,showed cross-reactivity with O1 LPS,,
B2,,,blocked,neutralize,blocked,neutralize,,did not protect,did not protect,,+++,+/−
